{
  "source": "patent US20180022822A1",
  "about": "(MABIMMUNE DIAGNOSTICS, published 2018)",
  "key": {"[1]": {"target": "T1, FAP peptide 521-539 with alanine substitution at position 532 (human)", "T1 construct": "also called spot 13", "T1 peptide": "KMILPPQFDRSAKYPLLIQ", "experiment": "alanine-mutated linear peptides spotted on nitrocellulose", "protocol": "(§1) Binding capacity of the antibodies was tested on these peptides spotted onto a nitrocellulose membrane (JPT Peptide Technologies, Berlin, Germany) and using HRP-conjugated donkey anti-human IgG secondary antibody (Jackson immunoResearch, Newmarket, UK) followed by detection of HRP activity (FIGS. 4A and C). In brief, epitope mapping was performed using scans of overlapping peptides. The entire sequences of FAP were synthesized as a total of 188 linear 15-mer peptides with an 11 amino acid overlap between individual peptides. Those peptides were spotted onto nitrocellulose membranes (JPT Peptide Technologies, Berlin, Germany). The membrane was activated for 5 min in methanol and washed in TBS for 10 min at RT. Non-specific binding sites were blocked for 2 h at RT with Roti®-Block (Carl Roth GmbH+Co. KG, Karlsruhe, Germany). Human antibodies (1 μg/ml) were incubated in Roti®-Block for 3 h at RT. Binding of primary antibody was determined using HRP-conjugated donkey anti-human IgG secondary antibody. Blots were developed and evaluated using ECL and ImageQuant 350 detection (GE Healthcare, Otelfingen, Switzerland)."}, "[2]": {"target": "T2, FAP peptide 521-539 with alanine substitution at position 529 (human)", "T2 construct": "also called spot 10", "T2 peptide": "KMILPPQFARSKKYPLLIQ", "experiment": "alanine-mutated linear peptides spotted on nitrocellulose", "protocol": "as §1"}, "[3]": {"target": "T3, recombinant human Prolyl Oligopeptidase/Prolyl Endopeptidase (POP/PREP) (human, UniProt P48147 1-710)", "T3 construct": "Bought active enzyme; also called rhPOP/PREP; BPS Bioscience 80105", "T3 sequence (looked up)": "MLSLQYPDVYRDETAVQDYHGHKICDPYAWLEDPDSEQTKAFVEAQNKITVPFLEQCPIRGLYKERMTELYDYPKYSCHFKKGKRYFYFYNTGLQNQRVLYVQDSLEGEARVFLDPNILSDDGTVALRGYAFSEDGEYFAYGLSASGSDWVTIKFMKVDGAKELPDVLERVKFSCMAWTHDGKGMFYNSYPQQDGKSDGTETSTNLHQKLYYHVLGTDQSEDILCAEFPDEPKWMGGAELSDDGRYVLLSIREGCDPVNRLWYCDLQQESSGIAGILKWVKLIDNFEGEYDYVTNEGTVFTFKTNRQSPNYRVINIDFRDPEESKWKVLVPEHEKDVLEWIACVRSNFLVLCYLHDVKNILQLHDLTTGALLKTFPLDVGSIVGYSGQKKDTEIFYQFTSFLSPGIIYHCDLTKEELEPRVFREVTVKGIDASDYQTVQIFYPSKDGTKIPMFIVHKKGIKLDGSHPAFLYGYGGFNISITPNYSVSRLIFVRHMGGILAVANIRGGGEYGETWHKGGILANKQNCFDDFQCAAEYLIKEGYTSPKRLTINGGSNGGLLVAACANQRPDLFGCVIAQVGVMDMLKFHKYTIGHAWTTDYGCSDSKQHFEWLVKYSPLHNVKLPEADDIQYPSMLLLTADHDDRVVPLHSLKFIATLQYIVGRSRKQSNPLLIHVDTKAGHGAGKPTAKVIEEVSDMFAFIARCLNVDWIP", "experiment": "sandwich ELISA: F19 coated as capture antibody, homologue titrated, HRP-labelled NI-206.82C2 as detection antibody; no signal means that no F19/antigen/82C2 sandwich formed", "protocol": "(§2) The coating solution was removed and the plate was blocked with 40 μL 2% BSA in PBS blocking buffer for 1 h at room temperature and then discarded. 30 uL sample solution was then added. Sample solutions included recombinant human FAP standard (FIG. 17A), human serum at varying dilutions (FIG. 17B), FAP homologues (FIG. 17C), serum samples from healthy patients (FIGS. 18 and 19), serum samples patients with metastatic colorectal cancer (FIG. 18), serum samples from patients with cardiovascular disease (FIG. 19), sodium citrate plasma samples from healthy patients (FIG. 20), and sodium citrate samples from patients with symptomatic carotid atherosclerotic plaques (FIG. 20). Sample solutions were added at a total volume of 30 μL. The plate was washed three times with 40 μL PBS and blotted dry. […] The plate was then washed again three times with 3×PBS and blotted dry. 30 μL TMB (3,3′,5,5′-Tetramethylbenzidine) solution was then added to each well and allowed to develop for 5-10 minutes at room temperature. The reaction was then stopped by the addition of 30 μL 1M H2SO4, and absorbance at 450 nm was read with a plate reader."}, "[4]": {"target": "T4, recombinant human Dipeptidyl Peptidase 9 (DPP9) (human, UniProt Q86TI2 1-863, limits assumed)", "T4 construct": "Bought active enzyme; also called rhDPP9", "T4 sequence (Q86TI2 whole entry)": "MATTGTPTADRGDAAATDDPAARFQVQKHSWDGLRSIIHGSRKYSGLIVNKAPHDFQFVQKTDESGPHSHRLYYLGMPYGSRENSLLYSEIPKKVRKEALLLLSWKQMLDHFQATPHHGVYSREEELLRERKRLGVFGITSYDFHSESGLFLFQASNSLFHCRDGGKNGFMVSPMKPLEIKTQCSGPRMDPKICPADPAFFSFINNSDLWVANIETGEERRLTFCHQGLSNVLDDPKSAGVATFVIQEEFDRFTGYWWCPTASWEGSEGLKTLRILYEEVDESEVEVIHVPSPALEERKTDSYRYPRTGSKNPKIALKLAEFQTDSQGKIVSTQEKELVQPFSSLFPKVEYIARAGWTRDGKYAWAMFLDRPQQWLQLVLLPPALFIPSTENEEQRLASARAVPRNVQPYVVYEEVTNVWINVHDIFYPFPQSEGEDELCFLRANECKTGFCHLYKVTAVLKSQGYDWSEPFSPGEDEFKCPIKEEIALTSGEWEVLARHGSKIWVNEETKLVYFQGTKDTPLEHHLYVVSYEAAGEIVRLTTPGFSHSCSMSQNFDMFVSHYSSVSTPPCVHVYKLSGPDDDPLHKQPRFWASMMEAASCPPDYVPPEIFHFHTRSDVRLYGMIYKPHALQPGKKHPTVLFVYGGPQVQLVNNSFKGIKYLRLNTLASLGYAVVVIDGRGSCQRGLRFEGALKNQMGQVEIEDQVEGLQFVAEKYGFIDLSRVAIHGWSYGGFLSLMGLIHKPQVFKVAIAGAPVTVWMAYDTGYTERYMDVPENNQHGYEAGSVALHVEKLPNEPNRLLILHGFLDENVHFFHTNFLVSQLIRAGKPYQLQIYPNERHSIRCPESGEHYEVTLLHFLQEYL", "experiment": "sandwich ELISA: F19 coated as capture antibody, homologue titrated, HRP-labelled NI-206.82C2 as detection antibody; no signal means that no F19/antigen/82C2 sandwich formed", "protocol": "as §2"}, "[5]": {"target": "T5, recombinant human Dipeptidyl Peptidase IV (DPPIV) (human, UniProt P27487 29-766, limits assumed)", "T5 construct": "Bought active enzyme; also called rhDPPIV; DPP4", "T5 sequence (P27487 29-766 limits assumed)": "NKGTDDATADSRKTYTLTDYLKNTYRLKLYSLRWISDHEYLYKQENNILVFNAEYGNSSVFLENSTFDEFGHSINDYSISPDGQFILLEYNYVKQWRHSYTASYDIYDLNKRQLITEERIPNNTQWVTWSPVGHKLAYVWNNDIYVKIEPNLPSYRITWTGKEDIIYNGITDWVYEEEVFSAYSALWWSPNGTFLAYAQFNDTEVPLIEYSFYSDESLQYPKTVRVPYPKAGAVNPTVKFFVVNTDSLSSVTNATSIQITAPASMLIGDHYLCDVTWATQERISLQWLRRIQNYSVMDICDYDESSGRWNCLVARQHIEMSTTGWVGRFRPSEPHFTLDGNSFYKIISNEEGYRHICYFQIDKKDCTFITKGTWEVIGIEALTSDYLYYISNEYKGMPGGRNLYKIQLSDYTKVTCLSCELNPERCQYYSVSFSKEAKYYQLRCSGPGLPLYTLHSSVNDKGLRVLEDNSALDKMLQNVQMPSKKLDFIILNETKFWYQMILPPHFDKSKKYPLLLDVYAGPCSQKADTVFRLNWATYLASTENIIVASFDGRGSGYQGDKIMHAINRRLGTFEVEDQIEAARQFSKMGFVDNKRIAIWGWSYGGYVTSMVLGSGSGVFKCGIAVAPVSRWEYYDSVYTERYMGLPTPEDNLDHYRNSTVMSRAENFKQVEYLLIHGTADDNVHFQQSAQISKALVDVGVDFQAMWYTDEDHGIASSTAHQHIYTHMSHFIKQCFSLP", "experiment": "sandwich ELISA: F19 coated as capture antibody, homologue titrated, HRP-labelled NI-206.82C2 as detection antibody; no signal means that no F19/antigen/82C2 sandwich formed", "protocol": "as §2"}, "[6]": {"target": "T6, bovine serum albumin (BSA) (bovine, UniProt P02769 25-607)", "T6 construct": "Negative control antigen in the ELISAs", "T6 sequence (P02769 25-607 limits assumed)": "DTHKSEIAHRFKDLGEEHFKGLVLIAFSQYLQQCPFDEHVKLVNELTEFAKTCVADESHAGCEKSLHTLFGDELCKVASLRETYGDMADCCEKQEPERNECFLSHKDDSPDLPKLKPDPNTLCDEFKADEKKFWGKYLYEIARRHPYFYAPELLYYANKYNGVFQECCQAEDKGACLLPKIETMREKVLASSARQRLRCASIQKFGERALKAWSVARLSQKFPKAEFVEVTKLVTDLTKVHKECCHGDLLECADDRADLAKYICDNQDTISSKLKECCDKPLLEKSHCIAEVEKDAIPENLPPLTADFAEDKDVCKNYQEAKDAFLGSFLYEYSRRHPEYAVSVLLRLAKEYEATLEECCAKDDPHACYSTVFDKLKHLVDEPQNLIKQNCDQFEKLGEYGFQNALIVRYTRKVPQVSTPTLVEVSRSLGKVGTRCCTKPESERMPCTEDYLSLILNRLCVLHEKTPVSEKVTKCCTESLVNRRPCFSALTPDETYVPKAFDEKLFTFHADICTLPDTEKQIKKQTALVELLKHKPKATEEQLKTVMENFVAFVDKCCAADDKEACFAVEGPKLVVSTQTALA", "experiment": "direct ELISA: BSA coated directly on the plate"}},
  "data": [
    {"binder": "NI-206.82C2 (antibody, V domains shown, Recombinantly expressed as complete human IgG1 with a lambda light chain; HRP-labelled in the homologue and sandwich ELISAs, Cy5-labelled in flow cytometry; also called HRP-labelled 82C2; Cy5 labelled 82C2) VH: QVQLQQSGPGLVKPSQTLSLTCAISGDSVSSNSVTWNWIRQSPSRGLEWLGRTYYRSKWYNDYAVSVKGRITINPDTSKNQFYLQLKSVTPEDAAVYYCARDSSILYGDYWGQGTLVTVSS VL: QAVLTQPSSLSASPGASASLTCTLPSGINVGTYRIFWFQQKPGSPPQYLLSYKSDSDNHQGSGVPSRFSGSKDASANAGILLISGLQSEDEADYYCMIWHSSAWVFGGGTKLTVL", "values": [
      {"measurement": "binding result", "setting": "[1]", "result": "no binding"},
      {"measurement": "binding result", "setting": "[2]", "result": "no binding"},
      {"measurement": "binding result", "setting": "[3]", "result": "no binding (tested: 250 ng/mL)"},
      {"measurement": "binding result", "setting": "[4]", "result": "no binding (tested: 250 ng/mL)"},
      {"measurement": "binding result", "setting": "[5]", "result": "no binding (tested: 250 ng/mL)"},
      {"measurement": "binding result", "setting": "[6]", "result": "no binding"}
    ]}
  ]
}
